Fewer inactive variants are shown than the library holds.
B1: TPR 5TU (parent)
chain: GGAUCUUCUCGAUCUAACAAAAAAGACAAAUCUGCCACAAAGCUUGAGAGCAUCUUCGGAUGCAGAGGCGGCAGCCUUCGGUGGCGCGAUAGCGCCAACGUUCUCAACUAUGACACGCAAAACGCGUGCUCCGUUGAAUGGAGUUUAUCAUG

Variants of: B1
Assay: polymerase ribozyme fitness, log enrichment relative to wild type (log ratio); higher = more active; in vitro selection for triplet polymerase activity
Outline: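 Mutant libraries of both subunits of a heterodimeric triplet polymerase ribozyme were PCR-built, transcribed, and selected once in triplicate, with frozen incubation at −7 °C and capture of gel-excised extended constructs on streptavidin beads before RT-PCR. Illumina sequencing of input and output libraries was filtered to genotypes with ≥10 input reads and ≥1 read per output. Fitness is the logarithm of genotype enrichment over wild-type enrichment, using inverse-variance-weighted replicate averages. The logarithm is base 2.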

Variant	polymerase ribozyme fitness (log ratio)
GGAUCUUCUCGAUCUAACAAAAAAGACAAAUCUGCCACAAAGCUUGAGAGCAUCUUUCGUUGCAGAGGCGGCAGCCUUCGGUGGCGCAAUAGCGCCAAAGUUCUCAACUAUGACACGCAAAACGCGUGCUCCGUUGAAUGGAGUUUAUCAUG [C57U G58C A60U G88A C99A]	≤ -4.2
GGAUCUUCUCGAUCUAACAAAAAAGACAAAUCUGCCACAAAGCUUGAGAGCAUCUUUGGAUGCAGAGGCGGCAGCCUUCGGUGGCGCGAUAGCGCCAACGUUCUCAACUAUGACAGGCAAAACCCGUGCUCCGUUGAAUGCAGUGUAUCAUG [C57U C116G G124C G141C U145G]	≤ -4.2
GGAUCUUCUCGAUCUAACAAAAAAGACAAAUCUGCCACAAAGCUUGAGAGCAUCUUUGGAUGCAGAGGCGGCAGCCUUCGGUGGCGCGAUAGGGCCAACGUUCUCAACUAUGACACGCAAAACGCGUGCUCCGUUGAAUGGAGUUUAUCAUG [C57U C93G]	-3.36
GGAUCUUCUCGAUCUAACAAAAAAGACAAAUCUGCCACAAAGCUUGAGAGCAUCUUUGGAUGCAGAGGCGGCAGCCUUCGGUGGCGCGAUAGAGCCAACGUUCUCAACUAUGACACGCAAAACGCGUGCUCCGUUGAAUGGAGUUUAUCAUG [C57U C93A]	-1.61
GGAUCUUCUCGAUCUAACAAAAAAGACAAAUCUGCCACAAAGCUUGAGAGCAUCUUUGGAUGCAGAGGCGGCAGCCUUCGGUGGCGUGAUAGCGCCAACGUUCUCAACUAUGACAUGUCAAACGCGUGCUCCGUUAAAUGGAGUUUAUCAUG [C57U C87U C116U C118U A119C G136A]	0.419
GGAUCUUCUCGAUCUAACAAAAAAGACAAAUCUGCCACAAAGCUUGAGAGCAUCUUUCGAUGCAGAGGCGGCAGCCUUCGGUGGCGCGAUAGCGCCAACGUUCUCAACUAUGACACGCAAAACGCGUGCUCCGUUGAAUGGCGUUUAUCAUG [C57U G58C A142C]	0.768
GGAUCUUCUCGAUCUAACAAAAAAGACAAAUCUGCCACAAAGCUUGAGAGCAUCUUUGGAUGCAGAGGCGGCAGCCUUCGGUGGAGCGAUAGCGCCAACUUUCUCAACUAUGACGCGCAAAACGCGUGCUCCGUAGAAUGCAGUUUAUCAUG [C57U C85A G100U A115G U135A G141C]	≤ -4.2
GGAUCUUCUCGAUCUAACAAAAAAGACAAAUCUGCCACAAAGCUUGAGAGCAUCUUUGGAUGCAGAGGCGGCAGCCUUCGGUGGUGCGCUAGCGCCAACGUUCUCAACUAUGACACGCAAAACGCGAGCUCCGUUGAAUGGAGUUUAUCAUG [C57U C85U A89C U127A]	-4.18
GGAUCUUCUCGAUCUAACAAAAAAGACAAAUCUGCCACAAAGCUUGAGAGCAUCUUUGGAUGCAGAGGCGGCAGCCUUCGGUGGCGCGAUAGUGCCAACGUUCUCAACUAUGACCCGCAAAACGCGUGCUCCGUUGAAUGGCGUUUUUCAUG [C57U C93U A115C A142C A147U]	≤ -4.2
GGAUCUUCUCGAUCUAACAAAAAAGACAAAUCUGCCACAAAGCUUGAGAGCAUCUUUGGAUGCAGAGGCGGCAGCCUUCGGUGGCGUGAUAGCGCCAACGUUGUCAACUAUGACACGCAAAACGCGUGCUCCGUUGAAUGGAGUUUAUCAUG [C57U C87U C103G]	-1.94
GGAUCUUCUCGAUCUAACAAAAAAGACAAAUCUGCCACAAAGCUUGAGAGCAUCUUUGGAUGCAGAGGCGGCAGCCUUGGGUGGCGCGAUAGCGCCAACGUUCUCAACUAUGACACGCAAAACGCGUGCUCCGUUGAAUGGAGUUUAUCAUG [C57U C79G]	-3.67
GGAUCUUCUCGAUCUAACAAAAAAGACAAAUCUGCCACAAAGCUUGAGAGCAUCUUUGGAUGCAGAGGCGGCAGCCUUCGGUGGCGCGAUAGCGACAACGUUCUCAACUAUUACACGCAAAACGCGUGCUCCGUUGAAUGGAGUUUAUCAAG [C57U C95A G112U U151A]	-4.06
GGAUCUUCUCGAUCUAACAAAAAAGACAAAUCUGCCACAAAGCUUGAGAGCAUCUUUGAAUGCAGAGGCGGCAGCCUUCGGUGGCACGAUAGCGCCAACGUUCUCAACUAUGACACGCAAAACGCGUGCUCCGAUGAAUGGAGUUUAACAUG [C57U G59A G86A U134A U148A]	≤ -4.2
GGAUCUUCUCGAUCUAACAAAAAAGACAAAUCUGCCACAAAGCUUGAGAGCAUCUUUGAAUGCAGAGGCGGCAGCCUUCGGUGGUGCGAUAGCGGCAACGUUCUCAACUAUGACACGCAAAACGCGUGCUCCGUUGAAUGGAGUUUAUCAUG [C57U G59A C85U C95G]	-2.02
GGAUCUUCUCGAUCUAACAAAAAAGACAAAUCUGCCACAAAGCUUGAGAGCAUCUUUGGAUGCAGAGGCGGCAGCCUUCGGUGGAGCGAUAGCGCCACCGUUCUCAACUAUGACACGCAAAACGCGUGCUCCGUUGAAUGGAGUUUAUCAUG [C57U C85A A98C]	-1.23
GGAUCUUCUCGAUCUAACAAAAAAGACAAAUCUGCCACAAAGCUUGAGAGCAUCUUUGGAUGCAGAGGCGGCAGCCUUCGGUGGGGCGAUAGCGCCAACGUUCUCAACUAUGACACGCAAAACGCGUGCUCCGUUGAAUGGAGUUUAUCAUG [C57U C85G]	-2.48
GGAUCUUCUCGAUCUAACAAAAAAGACAAAUCUGCCACAAAGCUUGAGAGCAUCUUUGGAUGCAGAGGCGGCAGCCUUCGGUGGCGCGAUAGCGCCAACGUUCUGAACUAUGACACGCAAAACGCGUGCUCCGUUGAAUGGAGUUUAUCAUG [C57U C105G]	-0.3
GGAUCUUCUCGAUCUAACAAAAAAGACAAAUCUGCCACAAAGCUUGAGAGCAUCUUUGGAUGCAGAGGCGGCAGCCUUCGGUGGCGCGAUAGCGCCAACGUUCUAAACUAUGACACGCAAAACGCGUGCUCCGUUGAAUGGAGUUUAUCAUG [C57U C105A]	-0.73
GGAUCUUCUCGAUCUAACAAAAAAGACAAAUCUGCCACAAAGCUUGAGAGCAUCUUUUGAUGCAGAGGCGGCAGCCUUCGGUGGCGCGAUAGCGCCAACGUUCUCAACUAUGACACGCAAAACGCGUGCUCCGUUGAAUGGAGUUUAUCAUG [C57U G58U]	0.297

From the RNAGym collection of RNA variant scans (doi:10.1073/pnas.2313332121)
